Reference: US20200231681A1
Values joined by “and” are separate entries in the source; they are usually repeats but may differ in a detail not shown here. Identical values can stand only once.

Assays:
[1] = biological target: c-Met receptor on human tumor cells (MKN45, NCI-H820, HCC827) (human) (UniProt P08581); assay: flow cytometry on MKN45 cells, (MFI 37° C. - IgG)/(MFI 4° C. - IgG) x 100
[2] = biological target: c-Met receptor on human tumor cells (MKN45, NCI-H820, HCC827) (human) (UniProt P08581); assay: flow cytometry on MKN45 cells, 100 nM antibody, 4° C. 1 hour (not internalized), anti-human kappa LC-FITC
[3] = biological target: c-Met receptor on human tumor cells (MKN45, NCI-H820, HCC827) (human) (UniProt P08581); assay: flow cytometry on MKN45 cells, 100 nM antibody overnight at 37° C., antibody left on the surface, anti-human kappa LC-FITC
[4] = biological target: human FGF R3 (IIIc) Fc chimera (R&D systems, 766-FR) (human) (UniProt P22607); assay: indirect ELISA, hu8C4 at 30.000 nM
[5] = biological target: human FGF R3 (IIIc) Fc chimera (R&D systems, 766-FR) (human) (UniProt P22607); assay: indirect ELISA, hu8C4 at 0.048 nM
[6] = biological target: human FGF R3 (IIIc) Fc chimera (R&D systems, 766-FR) (human) (UniProt P22607); assay: indirect ELISA, hu8C4 at 0.010 nM
[7] = biological target: human FGF R3 (IIIc) Fc chimera (R&D systems, 766-FR) (human) (UniProt P22607); assay: indirect ELISA, hu8C4 at 0.002 nM

Chain of c-Met receptor on human tumor cells (MKN45, NCI-H820, HCC827) (human) (P08581 25-1390): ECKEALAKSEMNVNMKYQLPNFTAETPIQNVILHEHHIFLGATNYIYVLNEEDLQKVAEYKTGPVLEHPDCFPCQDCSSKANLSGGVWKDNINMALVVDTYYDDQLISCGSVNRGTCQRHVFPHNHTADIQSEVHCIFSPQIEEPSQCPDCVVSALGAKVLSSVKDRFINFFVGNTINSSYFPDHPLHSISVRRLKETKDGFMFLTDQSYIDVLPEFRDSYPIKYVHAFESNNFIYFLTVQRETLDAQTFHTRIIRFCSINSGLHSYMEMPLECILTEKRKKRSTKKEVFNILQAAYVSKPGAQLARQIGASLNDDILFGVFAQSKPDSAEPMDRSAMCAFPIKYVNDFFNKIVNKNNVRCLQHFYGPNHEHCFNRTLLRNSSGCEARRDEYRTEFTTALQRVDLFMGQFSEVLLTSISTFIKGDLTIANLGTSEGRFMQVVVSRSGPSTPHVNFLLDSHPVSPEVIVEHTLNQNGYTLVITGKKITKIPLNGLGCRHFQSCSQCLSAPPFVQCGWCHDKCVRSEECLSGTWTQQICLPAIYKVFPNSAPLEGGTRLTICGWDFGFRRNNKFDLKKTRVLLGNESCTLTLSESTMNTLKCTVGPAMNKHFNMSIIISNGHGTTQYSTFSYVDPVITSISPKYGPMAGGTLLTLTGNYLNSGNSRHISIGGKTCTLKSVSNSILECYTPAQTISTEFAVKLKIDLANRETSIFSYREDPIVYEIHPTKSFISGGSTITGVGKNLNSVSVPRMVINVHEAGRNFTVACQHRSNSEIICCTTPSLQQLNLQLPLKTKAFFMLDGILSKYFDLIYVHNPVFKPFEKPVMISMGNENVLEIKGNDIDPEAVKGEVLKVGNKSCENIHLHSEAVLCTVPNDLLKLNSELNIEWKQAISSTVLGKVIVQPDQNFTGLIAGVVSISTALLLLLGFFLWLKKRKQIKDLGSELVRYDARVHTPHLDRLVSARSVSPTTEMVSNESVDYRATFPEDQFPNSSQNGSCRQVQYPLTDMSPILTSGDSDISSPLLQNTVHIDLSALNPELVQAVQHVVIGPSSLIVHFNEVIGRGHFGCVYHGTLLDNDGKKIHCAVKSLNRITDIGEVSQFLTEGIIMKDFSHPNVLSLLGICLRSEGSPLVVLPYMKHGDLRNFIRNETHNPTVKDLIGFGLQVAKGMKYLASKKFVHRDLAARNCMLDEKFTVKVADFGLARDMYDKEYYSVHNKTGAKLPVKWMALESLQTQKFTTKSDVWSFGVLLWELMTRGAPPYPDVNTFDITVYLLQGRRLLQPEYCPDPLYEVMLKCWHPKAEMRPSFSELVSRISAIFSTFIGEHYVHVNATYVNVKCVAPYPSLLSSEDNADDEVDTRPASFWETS

Binder | Surface bound Ab(%) [1] | FITC MFI [4° C. control] (FITC geo-mean (MFI)) [2] | FITC MFI [37° C. exp.] (FITC geo-mean (MFI)) [3] | A450 nm-A570 nm (A450 nm-A570 nm) [4] | A450 nm-A570 nm (A450 nm-A570 nm) [5] | A450 nm-A570 nm (A450 nm-A570 nm) [6] | A450 nm-A570 nm (A450 nm-A570 nm) [7]
OA-5D5 (Genentech) (antibody, INN chains, looked up, V domains shown, one-armed) VH: EVQLVESGGGLVQPGGSLRLSCAASGYTFTSYWLHWVRQAPGKGLEWVGMIDPSNSDTRFNPNFKDRFTISADTSKNTAYLQMNSLRAEDTAVYYCATYRSYVTPLDYWGQGTLVTVSS VL: DIQMTQSPSSLSASVGDRVTITCKSSQSLLYTSSQKNYLAWYQQKPGKAPKLLIYWASTRESGVPSRFSGSGSGTDFTLTISSLQPEDFATYYCQQYYAYPWTFGQGTKVEIK | 98% | 1760 | 1720 |  |  |  | 
hu8C4 (IgG1 humanized antibody having a hinge region of SEQ ID NO: 38 in hu8C4-1) (antibody, V domains shown) VH: EVQLVESGGGLVQPGGSLRLSCAASGYTFSDYYINWVRQAPGKGLEWIGEIFPGSGNTHFSARFKGRATLSADKSKNTAYLQMNSLRAEDTAVYYCAGGDYGFLYWGQGTLVTVSS VL: DIQMTQSPSSLSASVGDRVTITCGASENIYGALNWYQQKPGKAPKLLIYGATNLADGVPSRFSGSGSGRDFTFTISSLQPEDIATYYCQNVLSSPYTFGQGTKVEIK |  |  |  | 0.01 and 0.02 | 0 | 0 | 0
